# Data reported in US20040137580A1.
# B1: PSGL-1/mIgG2b made in COS7 m6 clone 5I (with porcine α1,3GalT) (Fc fusion, human, UniProt Q14242 18-320, looked up, not shown: a dimerising Fc or GST)
# chain: LQLWDTWADEAEKALGPLLARDRRQATEYEYLDYDFLPETEPPEMLRNSTDTTPLTGPGTPESTTVEPAARRSTGLDAGGAVTELTTELANMGNLSTDSAAMEIQTTQPAATEAQTTQPVPTEAQTTPLAATEAQTTRLTATEAQTTPLAATEAQTTPPAATEAQTTQPTGLEAQTTAPAAMEAQTTAPAAMEAQTTPPAAMEAQTTQTTAMEAQTTAPEATEAQTTQPTATEAQTTPLAAMEALSTEPSATEALSMEPTTKRGLFIPFSVSSVTHKGIPMAASNLSVNYPVGAPDHISVKQC
# modifications: α-Gal substituted glycans (COS7 m6 cells co-expressing porcine α1,3GalT)
# B2: PSGL-1/mIgG2b made in 293T clone 14 (with porcine α1,3GalT) (Fc fusion, human, UniProt Q14242 18-320, looked up, not shown: a dimerising Fc or GST)
# chain: LQLWDTWADEAEKALGPLLARDRRQATEYEYLDYDFLPETEPPEMLRNSTDTTPLTGPGTPESTTVEPAARRSTGLDAGGAVTELTTELANMGNLSTDSAAMEIQTTQPAATEAQTTQPVPTEAQTTPLAATEAQTTRLTATEAQTTPLAATEAQTTPPAATEAQTTQPTGLEAQTTAPAAMEAQTTAPAAMEAQTTPPAAMEAQTTQTTAMEAQTTAPEATEAQTTQPTATEAQTTPLAAMEALSTEPSATEALSMEPTTKRGLFIPFSVSSVTHKGIPMAASNLSVNYPVGAPDHISVKQC
# modifications: α-Gal substituted glycans (293T cells co-expressing porcine α1,3GalT)
# B3: PSGL-1/mIgG2b made in CHO-K1 clone C2-1-9 (with porcine α1,3GalT and C2 GnT1) (Fc fusion, human, UniProt Q14242 18-320, looked up, not shown: a dimerising Fc or GST)
# chain: LQLWDTWADEAEKALGPLLARDRRQATEYEYLDYDFLPETEPPEMLRNSTDTTPLTGPGTPESTTVEPAARRSTGLDAGGAVTELTTELANMGNLSTDSAAMEIQTTQPAATEAQTTQPVPTEAQTTPLAATEAQTTRLTATEAQTTPLAATEAQTTPPAATEAQTTQPTGLEAQTTAPAAMEAQTTAPAAMEAQTTPPAAMEAQTTQTTAMEAQTTAPEATEAQTTQPTATEAQTTPLAAMEALSTEPSATEALSMEPTTKRGLFIPFSVSSVTHKGIPMAASNLSVNYPVGAPDHISVKQC
# modifications: core 2 branched O-glycans with terminal Galα1,3Gal (Hex-HexNol-HexN-Hex-Hex; NeuAc-Hex-HexNol-HexN-Hex-Hex; NeuGc-Hex-HexNol-HexN-Hex-Hex)
# B4: PSGL-1/mIgG2b made in CHO-K1 clone 5L4-1 (with porcine α1,3GalT) (Fc fusion, human, UniProt Q14242 18-320, looked up, not shown: a dimerising Fc or GST)
# chain: LQLWDTWADEAEKALGPLLARDRRQATEYEYLDYDFLPETEPPEMLRNSTDTTPLTGPGTPESTTVEPAARRSTGLDAGGAVTELTTELANMGNLSTDSAAMEIQTTQPAATEAQTTQPVPTEAQTTPLAATEAQTTRLTATEAQTTPLAATEAQTTPPAATEAQTTQPTGLEAQTTAPAAMEAQTTAPAAMEAQTTPPAAMEAQTTQTTAMEAQTTAPEATEAQTTQPTATEAQTTPLAAMEALSTEPSATEALSMEPTTKRGLFIPFSVSSVTHKGIPMAASNLSVNYPVGAPDHISVKQC
# modifications: glycans of CHO-K1 cells co-expressing porcine α1,3GalT
# Key:
# [1] = biological target: PSGL1/mIgG2b fusion protein produced in COS-7 m6 cells without cotransfection of the α1,3 GT cDNA (human; mouse) (UniProt Q14242); assay: depletion of COS supernatant on beads, remaining fusion protein by anti-mouse IgG Fc sandwich ELISA
# [2] = biological target: PSGL-1/mIgG2b made in 293T clone 14 (with porcine α1,3GalT) (human; mouse) (UniProt Q14242); assay: sandwich ELISA, fusion protein captured by goat anti-mouse IgG Fc, detected with peroxidase-conjugated lectin or anti-mouse IgG Fc
# [3] = biological target: PSGL-1/mIgG2b made in CHO-K1 clone 5L4-1 (with porcine α1,3GalT) (human; mouse) (UniProt Q14242); assay: as above
# [4] = biological target: PSGL-1/mIgG2b made in CHO-K1 clone C2-1-9 (with porcine α1,3GalT and C2 GnT1) (human; mouse) (UniProt Q14242); assay: as above
# [5] = biological target: PSGL-1/mIgG2b made in COS7 m6 clone 5I (with porcine α1,3GalT) (human; mouse) (UniProt Q14242); assay: as above
# [6] = biological target: anti-pig reactive antibodies of human blood group AB serum; assay: cell-based or functional assay
molecule,measurement,setting,value
"goat anti-mouse IgG agarose beads (A-6531, Sigma) (antibody)",amount of PSGL1/mIgG2b absorbed onto 50 µl packed beads from 2 ml of supernatant,[1],260 ng
same,amount of PSGL1/mIgG2b absorbed onto 50 µl packed beads from 4 ml of supernatant,[1],290 ng
same,amount of PSGL1/mIgG2b absorbed onto 50 µl packed beads from 8 ml of supernatant,[1],360 ng
"peroxidase-conjugated Bandereia simplicifolia isolectin B4 (L-5391, Sigma)","fold increase in the relative O.D. (GSA-reactivity/anti-mouse IgG reactivity) against PSGL-1/mIgG2b made in 293T without the α1,3GalT",[2],3.1 fold
same,"fold increase in the relative O.D. (GSA-reactivity/anti-mouse IgG reactivity) against PSGL-1/mIgG2b made in CHO without the α1,3GalT",[3],1.8 fold
same,"fold increase of α-Gal epitope density (relative O.D. GSA-reactivity/anti-mouse IgG reactivity) against PSGL-1/mIgG2b made in CHO-K1 cells without the α1,3GalT",[4],13 fold
same,"fold increase of α-Gal epitope density (relative O.D. GSA-reactivity/anti-mouse IgG reactivity) against PSGL-1/mIgG2b made with the α1,3GalT alone",[4],7.4 fold
same,"fold increase in the relative O.D. (GSA-reactivity/anti-mouse IgG reactivity) against PSGL-1/mIgG2b made in COS without the α1,3GalT",[5],5.3 fold
B1,PAEC cytotoxicity of blood group AB serum after adsorption,[6],12%
same,"amount of adsorber needed to reduce the PAEC cytotoxicity of human AB serum to 40% of maximum, against CHO cell-made PSGL-1/mIgG2b",[6],16 times less
B2,PAEC cytotoxicity of blood group AB serum after adsorption,[6],25%
same,"amount of adsorber needed to reduce the PAEC cytotoxicity of human AB serum to 40% of maximum, against CHO cell-made PSGL-1/mIgG2b",[6],4 times less
B3,"amount of adsorber needed to reduce the PAEC cytotoxicity of human AB serum to 40% of maximum, against PSGL-1/mIgG2b made in CHO clone 5L4-1",[6],10 times less
B4,amount of adsorber needed to reduce the PAEC cytotoxicity of human AB serum to 40% of maximum,[6],9.1 µg
same,lowest PAEC cytotoxicity of blood group AB serum reached after adsorption,[6],> 36%
